The source of these data is patent US20240043533A1 (NGM BIOPHARMACEUTICALS, published 2024).

Read-outs that look alike come from different tables or passages of the source.

In experiment [1] the target is ILT3 extracellular domain chimeric receptor on NFAT-GFP reporter cells (human). Put plainly: cell-based or functional assay.
Experiment [2] addresses T1, extracellular domain of cyno ILT3 (cynoILT3-ECD) (cynomolgus monkey).
T1 chain: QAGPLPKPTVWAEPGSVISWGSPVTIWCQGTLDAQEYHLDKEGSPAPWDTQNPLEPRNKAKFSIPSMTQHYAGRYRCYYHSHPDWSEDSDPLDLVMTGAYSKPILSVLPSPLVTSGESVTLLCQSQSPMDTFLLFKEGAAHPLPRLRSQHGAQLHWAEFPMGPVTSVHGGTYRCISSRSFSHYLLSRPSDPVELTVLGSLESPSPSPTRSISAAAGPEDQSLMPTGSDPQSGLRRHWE
Put plainly: SPR (Biacore), antibody captured via anti-Fc on CM5 chip, soluble ILT3-ECD injected, 37 C. As to the method:
(§1) The binding affinities of anti-ILT3 antibodies to human ILT3 and cyno ILT3 were measured using a Biacore system (GE Healthcare LifeSciences). Briefly, anti-Fc antibody (Sigma-Aldrich) was immobilized on all four flow cells of a CM5 chip using amine coupling reagents (GE Healthcare LifeSciences). Antibodies were captured on flow cells 2, 3, and 4 using flow cell 1 as a reference. Concentrations ranging from 3.3-10 nM of human or cyno ILT3-ECD were injected at a flow rate of 50 μL/min at 37° C. Kinetic data were collected over time and fit using the simultaneous global fit equation to yield affinity constants (KD values) for each antibody.
(§2) The binding affinity of Hz5A7.v5 to human ILT3 and cyno ILT3 was determined using a Biacore system as described herein and compared with the binding affinity of the parental chimeric 5A7 (ch5A7) antibody and humanized 5A7 without any CDR modifications (Hz5A7.v1) (see Table 12).

In experiment [3] the target is T2, extracellular domain of human ILT3 (huILT3-ECD) (human, UniProt Q8NHJ6 22-259).
T2 construct: also called human ILT3-ECD
The experiment is described as above. As to the method: as §1, §2

The target of another experiment is T3, human LILRA4 (human, UniProt P59901 24-499).
T3 construct: whole, on cells
T3 sequence (P59901 24-499): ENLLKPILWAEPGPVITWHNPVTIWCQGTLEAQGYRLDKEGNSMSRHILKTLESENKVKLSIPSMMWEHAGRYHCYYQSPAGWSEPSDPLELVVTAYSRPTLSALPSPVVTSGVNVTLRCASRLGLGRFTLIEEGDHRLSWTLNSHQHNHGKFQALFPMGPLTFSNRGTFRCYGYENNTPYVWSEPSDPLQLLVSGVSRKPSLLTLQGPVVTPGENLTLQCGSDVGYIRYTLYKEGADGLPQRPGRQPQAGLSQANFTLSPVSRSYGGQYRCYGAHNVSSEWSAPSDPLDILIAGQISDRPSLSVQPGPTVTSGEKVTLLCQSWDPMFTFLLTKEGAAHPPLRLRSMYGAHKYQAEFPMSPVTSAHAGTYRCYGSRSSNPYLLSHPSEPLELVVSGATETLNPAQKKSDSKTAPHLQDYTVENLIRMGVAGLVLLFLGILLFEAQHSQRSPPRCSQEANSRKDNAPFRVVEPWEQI
The experiment in a line: FACS on cells expressing human LILRA4, labeled anti-mouse Fc secondary antibody. The protocol:
(§3) ELISA assays were used to screen antibodies against human ILT3 and human LILRA1,2,4-6. […] These antibodies were rescreened by FACS for binding to human ILT3 and cyno ILT3 expressed on HEK-293T cells. The antibodies that bound to both human and cyno ILT3 were selected. This subset of antibodies were screened by FACS against human LILRB1-5 (ILT2, ILT4, ILT5, ILT3, and LILRB5, respectively), cyno LILRB5, and human LILRA1,2,4-6. For FACS screening, each antibody was incubated with cells expressing human ILT3, cyno ILT3, one of the LILRA proteins, or one of the LILRB proteins for 30 minutes at 4° C. After washing, the cells were incubated with labeled anti-mouse Fc antibody for 30 minutes at 4° C. After washing, cells were analyzed on a flow cytometer. Antibodies were selected on the criteria of binding to human ILT3, cyno ILT3, no or limited binding to other LILRB proteins, and no or limited binding to LILRA proteins.

A further experiment concerns the target T4, LILRB3 (human, UniProt O75022).
T4 construct: expressed on the cell surface; also called human LILRB3; ILT5
The experiment in a line: FACS on cells expressing human LILRB3, labeled anti-mouse Fc secondary antibody. As to the method: as §3

Experiment [4] concerns the target T1, extracellular domain of cyno ILT3 …. Put plainly: SPR (Biacore), antibody captured via anti-Fc on CM5 chip, soluble ILT3-ECD injected, 37 C. The protocol:
as §1
(In SPR one partner is held on a chip, and binding of the other changes the refractive index at the surface.)

In experiment [5] the target is T2, extracellular domain of human ILT3 …. Described as above. The protocol: as §1
This is another data set of the same source.

The next experiment concerns the target T5, human LILRA1 (human, UniProt O75019 17-489).
T5 construct: whole, on cells
Put plainly: FACS on cells expressing human LILRA1, labeled anti-mouse Fc secondary antibody. As to the method: as §3

Another experiment has as its target T6, human LILRA6 (human, UniProt Q6PI73 24-447, limits assumed).
T6 construct: Read out of the printed 'LILRA1,2,4-6'
Put plainly: FACS on cells expressing human LILRA6, labeled anti-mouse Fc secondary antibody. As to the method: as §3

The target of a further experiment is T7, human LILRA2 (human, UniProt Q8N149 24-483).
T7 construct: whole, on cells
T7 sequence (Q8N149 24-483): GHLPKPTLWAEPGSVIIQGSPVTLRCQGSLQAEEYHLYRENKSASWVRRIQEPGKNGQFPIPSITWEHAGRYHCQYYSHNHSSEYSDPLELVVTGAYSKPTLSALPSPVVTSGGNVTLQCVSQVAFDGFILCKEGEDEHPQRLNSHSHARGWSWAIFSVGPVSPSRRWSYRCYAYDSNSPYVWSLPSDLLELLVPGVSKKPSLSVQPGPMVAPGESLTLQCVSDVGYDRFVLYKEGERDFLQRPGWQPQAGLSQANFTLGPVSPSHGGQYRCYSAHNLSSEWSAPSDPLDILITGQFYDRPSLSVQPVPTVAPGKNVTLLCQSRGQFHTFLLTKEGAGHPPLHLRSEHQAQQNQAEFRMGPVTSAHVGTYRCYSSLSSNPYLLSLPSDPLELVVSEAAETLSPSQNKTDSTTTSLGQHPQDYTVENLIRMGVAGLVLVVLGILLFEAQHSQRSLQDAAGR
Put plainly: FACS on cells expressing human LILRA2, labeled anti-mouse Fc secondary antibody. As to the method: as §3

In a further experiment the target is T8, LILRB5 (human, UniProt O75023).
T8 construct: expressed on the cell surface; also called human LILRB5; CD85C
T8 sequence (O75023 24-590 limits assumed): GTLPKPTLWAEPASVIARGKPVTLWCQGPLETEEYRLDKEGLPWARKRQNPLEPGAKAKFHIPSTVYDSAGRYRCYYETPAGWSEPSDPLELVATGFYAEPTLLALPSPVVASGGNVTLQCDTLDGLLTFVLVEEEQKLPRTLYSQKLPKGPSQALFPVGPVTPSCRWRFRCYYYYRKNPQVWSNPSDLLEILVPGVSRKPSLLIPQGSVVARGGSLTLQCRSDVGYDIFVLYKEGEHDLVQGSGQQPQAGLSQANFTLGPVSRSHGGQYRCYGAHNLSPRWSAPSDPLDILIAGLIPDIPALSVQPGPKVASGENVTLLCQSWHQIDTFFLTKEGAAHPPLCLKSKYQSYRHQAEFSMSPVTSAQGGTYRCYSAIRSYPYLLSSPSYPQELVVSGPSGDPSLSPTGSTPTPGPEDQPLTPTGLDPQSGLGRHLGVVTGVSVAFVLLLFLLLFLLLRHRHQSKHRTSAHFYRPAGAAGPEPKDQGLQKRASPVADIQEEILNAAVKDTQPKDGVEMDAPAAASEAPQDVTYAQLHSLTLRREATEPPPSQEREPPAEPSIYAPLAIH
The experiment in a line: FACS on cells expressing human LILRB5, labeled anti-mouse Fc secondary antibody. The protocol:
as §3

The target in another experiment is T9, LILRB4.
T9 construct: the construct expressed on the cells is not described further; also called human ILT3 expressed on cells for the FACS screen; ILT3
T9 sequence (receptor, as listed by the source limits assumed): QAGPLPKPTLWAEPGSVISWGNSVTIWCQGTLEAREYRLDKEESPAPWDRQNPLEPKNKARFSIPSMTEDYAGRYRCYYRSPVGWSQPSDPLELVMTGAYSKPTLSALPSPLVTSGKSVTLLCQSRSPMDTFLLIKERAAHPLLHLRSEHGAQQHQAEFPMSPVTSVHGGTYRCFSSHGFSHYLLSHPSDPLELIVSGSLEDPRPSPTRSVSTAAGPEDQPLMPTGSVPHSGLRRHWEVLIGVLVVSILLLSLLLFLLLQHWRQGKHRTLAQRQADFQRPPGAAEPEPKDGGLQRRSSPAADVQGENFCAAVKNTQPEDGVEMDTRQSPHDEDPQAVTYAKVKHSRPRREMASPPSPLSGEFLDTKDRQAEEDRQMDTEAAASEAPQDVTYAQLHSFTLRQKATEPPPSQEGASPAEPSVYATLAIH
The experiment in a line: FACS on cells expressing human LILRB4 (ILT3), labeled anti-mouse Fc secondary antibody. The protocol: as §3

The target in the next experiment is T10, Cyno LILRB5 (Macaca fascicularis, UniProt A0A2K5VIP6).
T10 construct: expressed on the cell surface; also called cynomolgus LILRB5
T10 sequence (A0A2K5VIP6 entry or part of it): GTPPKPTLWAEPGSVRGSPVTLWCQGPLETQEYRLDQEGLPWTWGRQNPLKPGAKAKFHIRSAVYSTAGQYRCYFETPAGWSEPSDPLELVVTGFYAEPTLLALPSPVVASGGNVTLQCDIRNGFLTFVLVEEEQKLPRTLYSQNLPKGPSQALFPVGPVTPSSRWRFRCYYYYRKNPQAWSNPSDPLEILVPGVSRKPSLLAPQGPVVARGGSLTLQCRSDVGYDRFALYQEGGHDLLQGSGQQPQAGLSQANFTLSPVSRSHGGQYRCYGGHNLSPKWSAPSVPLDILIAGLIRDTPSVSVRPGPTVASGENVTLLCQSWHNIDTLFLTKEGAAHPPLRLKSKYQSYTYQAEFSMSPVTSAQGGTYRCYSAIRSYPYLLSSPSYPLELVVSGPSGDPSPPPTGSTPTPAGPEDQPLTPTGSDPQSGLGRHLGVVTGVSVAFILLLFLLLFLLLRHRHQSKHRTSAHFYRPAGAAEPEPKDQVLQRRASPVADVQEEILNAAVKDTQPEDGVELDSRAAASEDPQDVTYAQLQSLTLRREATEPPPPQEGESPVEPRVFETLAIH
Put plainly: FACS on cells expressing cyno LILRB5, labeled anti-mouse Fc secondary antibody. As to the method: as §3

The next experiment has as its target T11, human LILRB2 (human, UniProt Q8N423 22-597).
T11 construct: whole, on cells; also called ILT4
Put plainly: FACS on cells expressing human LILRB2, labeled anti-mouse Fc secondary antibody. The protocol:
as §3

The next experiment concerns the target T12, human LILRA5 (human, UniProt A6NI73 42-299).
T12 construct: whole, on cells
The experiment in a line: FACS on cells expressing human LILRA5, labeled anti-mouse Fc secondary antibody. As to the method:
as §3

T5 sequence (O75019 17-489): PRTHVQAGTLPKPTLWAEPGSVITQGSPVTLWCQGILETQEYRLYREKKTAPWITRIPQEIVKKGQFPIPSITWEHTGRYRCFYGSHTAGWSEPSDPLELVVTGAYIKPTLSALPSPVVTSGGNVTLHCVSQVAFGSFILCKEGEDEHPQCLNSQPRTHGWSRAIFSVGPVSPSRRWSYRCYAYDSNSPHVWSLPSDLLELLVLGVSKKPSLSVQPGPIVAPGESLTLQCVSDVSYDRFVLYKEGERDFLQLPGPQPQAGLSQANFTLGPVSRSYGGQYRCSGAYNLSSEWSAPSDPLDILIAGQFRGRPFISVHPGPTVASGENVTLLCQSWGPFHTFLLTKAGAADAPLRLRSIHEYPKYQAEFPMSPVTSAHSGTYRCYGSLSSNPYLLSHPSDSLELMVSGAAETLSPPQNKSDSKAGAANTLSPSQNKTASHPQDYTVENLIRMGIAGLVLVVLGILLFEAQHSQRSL
T6 sequence (Q6PI73 24-447 limits assumed): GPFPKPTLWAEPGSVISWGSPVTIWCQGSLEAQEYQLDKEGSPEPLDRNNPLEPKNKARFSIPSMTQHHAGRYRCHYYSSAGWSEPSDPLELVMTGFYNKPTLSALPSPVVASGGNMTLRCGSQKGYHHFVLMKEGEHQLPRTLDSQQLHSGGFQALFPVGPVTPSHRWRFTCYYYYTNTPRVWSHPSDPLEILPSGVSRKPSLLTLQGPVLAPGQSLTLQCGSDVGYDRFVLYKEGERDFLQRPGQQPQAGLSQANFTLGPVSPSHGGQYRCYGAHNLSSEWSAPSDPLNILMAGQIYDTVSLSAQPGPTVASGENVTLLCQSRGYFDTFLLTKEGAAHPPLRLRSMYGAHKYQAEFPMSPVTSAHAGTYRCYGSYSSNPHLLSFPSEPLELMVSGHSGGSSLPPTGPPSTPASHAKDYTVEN
T4 sequence (O75022 24-631 limits assumed): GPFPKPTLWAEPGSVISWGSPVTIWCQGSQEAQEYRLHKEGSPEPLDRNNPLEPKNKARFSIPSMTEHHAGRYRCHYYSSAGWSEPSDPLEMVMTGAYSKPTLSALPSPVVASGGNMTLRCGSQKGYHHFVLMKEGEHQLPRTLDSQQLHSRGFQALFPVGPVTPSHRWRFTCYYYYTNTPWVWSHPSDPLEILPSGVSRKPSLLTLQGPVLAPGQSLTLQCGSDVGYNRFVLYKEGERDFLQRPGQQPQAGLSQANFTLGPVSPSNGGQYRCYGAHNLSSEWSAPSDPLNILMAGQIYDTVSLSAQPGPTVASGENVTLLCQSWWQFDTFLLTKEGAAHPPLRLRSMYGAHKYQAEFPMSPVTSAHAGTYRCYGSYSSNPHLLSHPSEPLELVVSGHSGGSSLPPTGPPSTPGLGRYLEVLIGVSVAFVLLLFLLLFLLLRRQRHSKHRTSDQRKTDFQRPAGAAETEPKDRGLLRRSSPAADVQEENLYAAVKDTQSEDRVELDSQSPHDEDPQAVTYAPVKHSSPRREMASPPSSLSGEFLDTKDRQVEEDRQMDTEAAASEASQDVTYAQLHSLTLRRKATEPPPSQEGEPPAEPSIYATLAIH
T12 sequence (A6NI73 42-299): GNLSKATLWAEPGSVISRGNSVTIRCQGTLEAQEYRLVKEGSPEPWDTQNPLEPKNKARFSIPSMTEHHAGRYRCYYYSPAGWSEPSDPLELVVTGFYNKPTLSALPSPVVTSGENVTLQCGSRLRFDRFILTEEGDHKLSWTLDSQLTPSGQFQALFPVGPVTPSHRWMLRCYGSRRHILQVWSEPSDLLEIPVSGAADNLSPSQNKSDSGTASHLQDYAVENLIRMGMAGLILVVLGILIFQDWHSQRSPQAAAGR
T11 sequence (Q8N423 22-597): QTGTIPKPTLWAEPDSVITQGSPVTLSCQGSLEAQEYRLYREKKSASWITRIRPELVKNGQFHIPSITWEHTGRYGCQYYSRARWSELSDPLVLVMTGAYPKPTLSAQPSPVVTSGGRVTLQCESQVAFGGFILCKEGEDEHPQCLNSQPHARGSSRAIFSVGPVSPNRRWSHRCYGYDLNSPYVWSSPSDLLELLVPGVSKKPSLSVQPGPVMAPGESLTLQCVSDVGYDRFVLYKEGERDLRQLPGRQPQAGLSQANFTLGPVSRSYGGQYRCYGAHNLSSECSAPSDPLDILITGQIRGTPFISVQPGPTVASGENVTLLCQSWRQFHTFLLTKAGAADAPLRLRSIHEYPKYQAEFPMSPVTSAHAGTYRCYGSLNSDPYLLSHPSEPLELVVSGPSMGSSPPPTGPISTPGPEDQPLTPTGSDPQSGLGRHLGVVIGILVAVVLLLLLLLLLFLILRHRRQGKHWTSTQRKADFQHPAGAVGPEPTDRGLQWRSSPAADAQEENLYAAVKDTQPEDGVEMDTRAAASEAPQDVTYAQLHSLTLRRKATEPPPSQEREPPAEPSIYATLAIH

B1: anti-ILT3 antibody ch5A7 (parental chimeric 5A7) (antibody, V domains shown)
VH: EVKLVESGGGLVKPGGSLKLSCAASGFTFSSYGMSWVRQTPEKRLEWVATISGGGSYTNYPDSVKGRLTISRDNAKKNLYLEMSSLRSEDTALYYCARREWRMTLYAMDYWGQGTSVTVSS
VL: NIVLTQSPASLAVSLGQRATISCRASESVDSYGNSFMHWYQQKPGQAPKLLIYLTSNLESGVPARFSGSGSRTDFTLTIDPVEADDAATYYCQQNNEDPFTFGSGTKLEIK
In general, Kd refers to the concentration at which binding is half-saturated. Read a high Kd as lower affinity. The term koff denotes the first-order rate constant of dissociation. Read a low koff as a long-lived complex. As usually defined, the kon is a measure of how fast the partners come together. As for B1, the “IC50 (read off the curve)” value in experiment [1] is approximately 0.01 nM. In experiment [2], the Kd was found to be 2.4 nM, the koff is 0.018 s⁻¹ and the on-rate (kon) was 7.5e+06 M⁻¹ s⁻¹. In experiment [3], the affinity, expressed as Kd, was 0.57 nM; the koff is 0.0017 s⁻¹; the kon stood at 2.9e+06 M⁻¹ s⁻¹.

B2: anti-ILT3 antibody 48A6 (antibody, V domains shown)
VH: EVQLVESGGDLMKPGGSLKLSCAASGFTFSSYGMSWVRQTPDKRLEWVATISSGGTYTFYPDSVKGRFTISRDNAKNTLYLQMSSLKSEDTAMYYCARRGWLLHYYAMDYWGQGTSVTVSS
VL: NIVLTQSPASLAVSLGQRATISCRPSESVDSFGNSFMHWFQQKPGQPPKLLIYLSSKLESGVPARFSGSGSRTDFTLTIDPVEADDAATYYCQQHNEDPFTFGSGTKLEIK
notes: Mouse monoclonal antibody from hybridoma
Broadly, the EC50 (read off the curve) is the concentration that produces a half-maximal response. A low value points to a more potent agent. For B2, the binding result with human LILRA4 was “no binding (tested: log [Ab] about -7.2 M (about 6e-8 M))”; with LILRB3, “binds”; with human LILRA1 it was “no binding (tested: log [Ab] about -7.2 M (about 6e-8 M))”; with human LILRA6 it was “no binding (tested: log [Ab] about -7.2 M (about 6e-8 M))”; with human LILRA2, “no binding (tested: log [Ab] about -7.2 M (about 6e-8 M))”; with LILRB5, “no binding (tested: log [Ab] about -7.2 M (about 6e-8 M))”. The binding result in the experiment with Cyno LILRB5, in the experiment with human LILRB2 and in the experiment with human LILRA5 was “no binding (tested: log [Ab] about -7.2 M (about 6e-8 M))” in each case. Also, the equilibrium dissociation constant (Kd) in experiment [4] is 1.7 nM; in experiment [5] it was less than 0.1 nM. The off-rate (koff) turned out to be 0.024 s⁻¹ in experiment [4] and 1.8e-07 s⁻¹ in experiment [5]. Besides, the kon turned out to be 1.4e+07 M⁻¹ s⁻¹ in experiment [4] and 7e+06 M⁻¹ s⁻¹ in experiment [5]. The “EC50 (read off the curve)” value with LILRB4 was approximately 0.2 nM.

B3: anti-ILT3 antibody 5A7 (antibody, V domains shown)
VH: EVKLVESGGGLVKPGGSLKLSCAASGFTFSSYGMSWVRQTPEKRLEWVATISGGGSYTNYPDSVKGRLTISRDNAKKNLYLEMSSLRSEDTALYYCARREWRMTLYAMDYWGQGTSVTVSS
VL: NIVLTQSPASLAVSLGQRATISCRASESVDSYGNSFMHWYQQKPGQAPKLLIYLTSNLESGVPARFSGSGSRTDFTLTIDPVEADDAATYYCQQNNEDPFTFGSGTKLEIK
notes: as for B2
In the case of B3, the binding result with human LILRA4, with LILRB3, in the experiment with human LILRA1, with human LILRA6, with human LILRA2 and with LILRB5 was “no binding (tested: log [Ab] about -7.2 M (about 6e-8 M))” in each case. For the same molecule, the binding result in the experiment with Cyno LILRB5, with human LILRB2 and in the experiment with human LILRA5 was “no binding (tested: log [Ab] about -7.2 M (about 6e-8 M))” in each case. Further, the Kd in experiment [4] stood at 0.66 nM; in [5], 0.028 nM. Moreover, the figures for the koff in experiment [4] and in experiment [5] were 0.0022 s⁻¹ and 0.00011 s⁻¹, respectively. In addition, the results for the on-rate constant (kon) in [4] and in experiment [5] were 3.3e+06 M⁻¹ s⁻¹ and 3.8e+06 M⁻¹ s⁻¹, respectively. Moreover, the “EC50 (read off the curve)” value with LILRB4 was approximately 0.3 nM.

B4: anti-ILT3 antibody 53F10 (antibody, V domains shown)
VH: EVQVVESGGGLVKPGGSLKLSCAASGFTFSDYGMHWVRQAPEKGLEWVAYISTGIITVYYADTVKGRFTMSRDNAKNTLFLQMTSLRSEDTAIYYCARADGRGAMDYWGQGTSVIVSS
VL: DIQMTQTTSSLSASLGDRVTISCRASQDISNFLNWYQQKPDGTVTLLIYYTSRLHSGVPSRFSGSGSGTDYSLTISNLEQEDFATYFCQQGNTLPWTFGGGTKLEIK
notes: as for B2
For B4, the binding result in the experiment with human LILRA4, with LILRB3, in the experiment with human LILRA1, with human LILRA6, in the experiment with human LILRA2 and with LILRB5 was “no binding (tested: log [Ab] about -7.2 M (about 6e-8 M))” each time. Besides, the binding result with Cyno LILRB5, in the experiment with human LILRB2 and in the experiment with human LILRA5 was “no binding (tested: log [Ab] about -7.2 M (about 6e-8 M))” in each case. Also, the Kd amounted to 9.4 nM in experiment [4] and 0.24 nM in experiment [5]. Besides, the results for the dissociation rate constant (koff) in [4] and in [5] were 0.0055 s⁻¹ and 8e-05 s⁻¹, respectively. Moreover, the on-rate constant (kon) in experiment [4] is 590000 M⁻¹ s⁻¹; in experiment [5], 330000 M⁻¹ s⁻¹. Also, the “EC50 (read off the curve)” value with LILRB4 was approximately 0.4 nM.

B5: Hz5A7.v1 (humanized 5A7 without any CDR modifications) (antibody, V domains shown)
VH: EVQLVESGGGLVQPGGSLRLSCAASGFTFSSYGMSWVRQAPGKGLEWVATISGGGSYTNYPDSVKGRFTISRDNAKNSLYLQMNSLRAEDTAVYYCARREWRMTLYAMDYWGQGTTVTVSS
VL: DIQLTQSPSFLSASVGDRVTITCRASESVDSYGNSFMHWYQQKPGKAPKLLIYLTSNLESGVPSRFSGSGSGTEFTLTISSLQPEDFATYYCQQNNEDPFTFGQGTKLEIK
As to B5, in experiment [2], binding was characterised by a dissociation constant (Kd) of 0.65 nM, the koff came out at 0.0077 s⁻¹ and the kon worked out at 1.2e+07 M⁻¹ s⁻¹. Moreover, in experiment [3], the affinity, expressed as Kd, was 0.48 nM; the off-rate (koff) amounted to 0.0012 s⁻¹; the kon was determined as 2.5e+06 M⁻¹ s⁻¹.
